The chains are these.
B1: ATP1B2 (Na/K-ATPase β2 subunit): N96Q (protein)
parent chain: MVIQKEKKSCGQVVEEWKEFVWNPRTHQFMGRTGTSWAFILLFYLVFYGFLTAMFTLTMWVMLQTVSDHTPKYQDRLATPGLMIRPKTENLDVIVNVSDTESWDQHVQKLNKFLEPYNDSIQAQKNDVCRPGRYYEQPDNGVLNYPKRACQFNRTQLGNCSGIGDSTHYGYSTGQPCVFIKMNRVINFYAGANQSMNVTCAGKRDEDAENLGNFVMFPANGNIDLMYFPYYGKKFHVNYTQPLVAVKFLNVTPNVEVNVECRINAANIATDDERDKFAGRVAFKLRINKT
B2: ATP1B2 (Na/K-ATPase β2 subunit): N159Q (protein)
parent chain: MVIQKEKKSCGQVVEEWKEFVWNPRTHQFMGRTGTSWAFILLFYLVFYGFLTAMFTLTMWVMLQTVSDHTPKYQDRLATPGLMIRPKTENLDVIVNVSDTESWDQHVQKLNKFLEPYNDSIQAQKNDVCRPGRYYEQPDNGVLNYPKRACQFNRTQLGNCSGIGDSTHYGYSTGQPCVFIKMNRVINFYAGANQSMNVTCAGKRDEDAENLGNFVMFPANGNIDLMYFPYYGKKFHVNYTQPLVAVKFLNVTPNVEVNVECRINAANIATDDERDKFAGRVAFKLRINKT
B3: ATP1B2 (Na/K-ATPase β2 subunit): N197Q (protein)
parent chain: MVIQKEKKSCGQVVEEWKEFVWNPRTHQFMGRTGTSWAFILLFYLVFYGFLTAMFTLTMWVMLQTVSDHTPKYQDRLATPGLMIRPKTENLDVIVNVSDTESWDQHVQKLNKFLEPYNDSIQAQKNDVCRPGRYYEQPDNGVLNYPKRACQFNRTQLGNCSGIGDSTHYGYSTGQPCVFIKMNRVINFYAGANQSMNVTCAGKRDEDAENLGNFVMFPANGNIDLMYFPYYGKKFHVNYTQPLVAVKFLNVTPNVEVNVECRINAANIATDDERDKFAGRVAFKLRINKT
B4: ATP1B2 (Na/K-ATPase β2 subunit): N238Q (protein)
parent chain: MVIQKEKKSCGQVVEEWKEFVWNPRTHQFMGRTGTSWAFILLFYLVFYGFLTAMFTLTMWVMLQTVSDHTPKYQDRLATPGLMIRPKTENLDVIVNVSDTESWDQHVQKLNKFLEPYNDSIQAQKNDVCRPGRYYEQPDNGVLNYPKRACQFNRTQLGNCSGIGDSTHYGYSTGQPCVFIKMNRVINFYAGANQSMNVTCAGKRDEDAENLGNFVMFPANGNIDLMYFPYYGKKFHVNYTQPLVAVKFLNVTPNVEVNVECRINAANIATDDERDKFAGRVAFKLRINKT
B5: ATP1B2 (Na/K-ATPase β2 subunit): N118Q (protein)
parent chain: MVIQKEKKSCGQVVEEWKEFVWNPRTHQFMGRTGTSWAFILLFYLVFYGFLTAMFTLTMWVMLQTVSDHTPKYQDRLATPGLMIRPKTENLDVIVNVSDTESWDQHVQKLNKFLEPYNDSIQAQKNDVCRPGRYYEQPDNGVLNYPKRACQFNRTQLGNCSGIGDSTHYGYSTGQPCVFIKMNRVINFYAGANQSMNVTCAGKRDEDAENLGNFVMFPANGNIDLMYFPYYGKKFHVNYTQPLVAVKFLNVTPNVEVNVECRINAANIATDDERDKFAGRVAFKLRINKT
B6: ATP1B2 (Na/K-ATPase β2 subunit): N250Q (protein)
parent chain: MVIQKEKKSCGQVVEEWKEFVWNPRTHQFMGRTGTSWAFILLFYLVFYGFLTAMFTLTMWVMLQTVSDHTPKYQDRLATPGLMIRPKTENLDVIVNVSDTESWDQHVQKLNKFLEPYNDSIQAQKNDVCRPGRYYEQPDNGVLNYPKRACQFNRTQLGNCSGIGDSTHYGYSTGQPCVFIKMNRVINFYAGANQSMNVTCAGKRDEDAENLGNFVMFPANGNIDLMYFPYYGKKFHVNYTQPLVAVKFLNVTPNVEVNVECRINAANIATDDERDKFAGRVAFKLRINKT
B7: ATP1B2 (Na/K-ATPase β2 subunit): N153Q (protein)
parent chain: MVIQKEKKSCGQVVEEWKEFVWNPRTHQFMGRTGTSWAFILLFYLVFYGFLTAMFTLTMWVMLQTVSDHTPKYQDRLATPGLMIRPKTENLDVIVNVSDTESWDQHVQKLNKFLEPYNDSIQAQKNDVCRPGRYYEQPDNGVLNYPKRACQFNRTQLGNCSGIGDSTHYGYSTGQPCVFIKMNRVINFYAGANQSMNVTCAGKRDEDAENLGNFVMFPANGNIDLMYFPYYGKKFHVNYTQPLVAVKFLNVTPNVEVNVECRINAANIATDDERDKFAGRVAFKLRINKT
B8: ATP1B2 (Na/K-ATPase β2 subunit): N193Q (protein)
parent chain: MVIQKEKKSCGQVVEEWKEFVWNPRTHQFMGRTGTSWAFILLFYLVFYGFLTAMFTLTMWVMLQTVSDHTPKYQDRLATPGLMIRPKTENLDVIVNVSDTESWDQHVQKLNKFLEPYNDSIQAQKNDVCRPGRYYEQPDNGVLNYPKRACQFNRTQLGNCSGIGDSTHYGYSTGQPCVFIKMNRVINFYAGANQSMNVTCAGKRDEDAENLGNFVMFPANGNIDLMYFPYYGKKFHVNYTQPLVAVKFLNVTPNVEVNVECRINAANIATDDERDKFAGRVAFKLRINKT

expression_or_secretion data for eight proteins are collected here from article PMC6497308.

This series can be described thus: Western blot densitometry of ATP1B2 in HEK293. Conditions: glycan lost; control: normal ATP1B2. Background: Immunoblotting shows a protein as a band on a membrane.
With B1, the expression_or_secretion entry is “no change”.
Under B2 stands “no change”; under B3, “no change”; under B4, “no change”.
Under B5 stands “no change”.
In the case of B6, the expression_or_secretion entry is “no change”.
Regarding B7, the expression_or_secretion entry is given as “no change”.
For B8 the value was “no change”.
